From patent US20140087995A1 (published 2014)
Numbered stars: 1 amine (or outer) side, 2 acyl side, 3 side chain; on linkers, the order of the positions; unused ones are H or OH. Bridge positions count the residues as written; N and C are the ends. Side chains are listed from the residue outwards. Ends that are not written are not given here. * marks the point of attachment. C20 diacid = O=C(O)CCCCCCCCCCCCCCCCCCC(=O)*; γGlu = O=C(O)[C@H](CCC(=O)[*:2])N[*:1]

B1: N^α1-[(4S)-4-carboxy-4-(19-carboxynonadecanoylamino)butanoyl]-[Glu14,Arg17,Pro21,Pro26,Pro37]-h-amylin (peptide)
peptide: {C20 diacid-γGlu}-KCNTATCATQRLAEFLRHSSPNFGAPLSSTNVGSNTP-NH2
modifications: disulfide 2-7
SMILES: CC(C)C[C@H](NC(=O)[C@H](CCCNC(=N)N)NC(=O)[C@H](CCC(N)=O)NC(=O)[C@@H](NC(=O)[C@H](C)NC(=O)[C@@H]1CSSC[C@H](NC(=O)[C@H](CCCCN)NC(=O)CC[C@H](NC(=O)CCCCCCCCCCCCCCCCCCC(=O)O)C(=O)O)C(=O)N[C@@H](CC(N)=O)C(=O)N[C@@H]([C@@H](C)O)C(=O)N[C@@H](C)C(=O)N[C@@H]([C@@H](C)O)C(=O)N1)[C@@H](C)O)C(=O)N[C@@H](C)C(=O)N[C@@H](CCC(=O)O)C(=O)N[C@@H](Cc1ccccc1)C(=O)N[C@@H](CC(C)C)C(=O)N[C@@H](CCCNC(=N)N)C(=O)N[C@@H](Cc1c[nH]cn1)C(=O)N[C@@H](CO)C(=O)N[C@@H](CO)C(=O)N1CCC[C@H]1C(=O)N[C@@H](CC(N)=O)C(=O)N[C@@H](Cc1ccccc1)C(=O)NCC(=O)N[C@@H](C)C(=O)N1CCC[C@H]1C(=O)N[C@@H](CC(C)C)C(=O)N[C@@H](CO)C(=O)N[C@@H](CO)C(=O)N[C@H](C(=O)N[C@@H](CC(N)=O)C(=O)N[C@H](C(=O)NCC(=O)N[C@@H](CO)C(=O)N[C@@H](CC(N)=O)C(=O)N[C@H](C(=O)N1CCC[C@H]1C(N)=O)[C@@H](C)O)C(C)C)[C@@H](C)O
notes: also called compound 5
B2: N^ε1-[(4S)-4-carboxy-4-[[(4S)-4-carboxy-4-(19-carboxynonadecanoylamino)butanoyl]amino]butanoyl]-[Asp14,Arg17,Pro22,Pro26,Asp35]-h-amylin (peptide)
peptide: K([γGlu-γGlu-C20 diacid])CNTATCATQRLADFLRHSSNPFGAPLSSTNVGSDTY-NH2
modifications: disulfide 2-7; N-terminus assumed
SMILES: CC(C)C[C@H](NC(=O)[C@H](CCCNC(=N)N)NC(=O)[C@H](CCC(N)=O)NC(=O)[C@@H](NC(=O)[C@H](C)NC(=O)[C@@H]1CSSC[C@H](NC(=O)[C@@H](N)CCCCNC(=O)CC[C@H](NC(=O)CC[C@H](NC(=O)CCCCCCCCCCCCCCCCCCC(=O)O)C(=O)O)C(=O)O)C(=O)N[C@@H](CC(N)=O)C(=O)N[C@@H]([C@@H](C)O)C(=O)N[C@@H](C)C(=O)N[C@@H]([C@@H](C)O)C(=O)N1)[C@@H](C)O)C(=O)N[C@@H](C)C(=O)N[C@@H](CC(=O)O)C(=O)N[C@@H](Cc1ccccc1)C(=O)N[C@@H](CC(C)C)C(=O)N[C@@H](CCCNC(=N)N)C(=O)N[C@@H](Cc1c[nH]cn1)C(=O)N[C@@H](CO)C(=O)N[C@@H](CO)C(=O)N[C@@H](CC(N)=O)C(=O)N1CCC[C@H]1C(=O)N[C@@H](Cc1ccccc1)C(=O)NCC(=O)N[C@@H](C)C(=O)N1CCC[C@H]1C(=O)N[C@@H](CC(C)C)C(=O)N[C@@H](CO)C(=O)N[C@@H](CO)C(=O)N[C@H](C(=O)N[C@@H](CC(N)=O)C(=O)N[C@H](C(=O)NCC(=O)N[C@@H](CO)C(=O)N[C@@H](CC(=O)O)C(=O)N[C@H](C(=O)N[C@@H](Cc1ccc(O)cc1)C(N)=O)[C@@H](C)O)C(C)C)[C@@H](C)O
notes: also called compound 3
B3: N^α1-[(4S)-4-carboxy-4-(19-carboxynonadecanoylamino)butanoyl]-[Glu14,Arg17,Pro21,Pro26]-h-amylin (peptide)
peptide: {C20 diacid-γGlu}-KCNTATCATQRLAEFLRHSSPNFGAPLSSTNVGSNTY-NH2
modifications: disulfide 2-7
SMILES: CC(C)C[C@H](NC(=O)[C@H](CCCNC(=N)N)NC(=O)[C@H](CCC(N)=O)NC(=O)[C@@H](NC(=O)[C@H](C)NC(=O)[C@@H]1CSSC[C@H](NC(=O)[C@H](CCCCN)NC(=O)CC[C@H](NC(=O)CCCCCCCCCCCCCCCCCCC(=O)O)C(=O)O)C(=O)N[C@@H](CC(N)=O)C(=O)N[C@@H]([C@@H](C)O)C(=O)N[C@@H](C)C(=O)N[C@@H]([C@@H](C)O)C(=O)N1)[C@@H](C)O)C(=O)N[C@@H](C)C(=O)N[C@@H](CCC(=O)O)C(=O)N[C@@H](Cc1ccccc1)C(=O)N[C@@H](CC(C)C)C(=O)N[C@@H](CCCNC(=N)N)C(=O)N[C@@H](Cc1c[nH]cn1)C(=O)N[C@@H](CO)C(=O)N[C@@H](CO)C(=O)N1CCC[C@H]1C(=O)N[C@@H](CC(N)=O)C(=O)N[C@@H](Cc1ccccc1)C(=O)NCC(=O)N[C@@H](C)C(=O)N1CCC[C@H]1C(=O)N[C@@H](CC(C)C)C(=O)N[C@@H](CO)C(=O)N[C@@H](CO)C(=O)N[C@H](C(=O)N[C@@H](CC(N)=O)C(=O)N[C@H](C(=O)NCC(=O)N[C@@H](CO)C(=O)N[C@@H](CC(N)=O)C(=O)N[C@H](C(=O)N[C@@H](Cc1ccc(O)cc1)C(N)=O)[C@@H](C)O)C(C)C)[C@@H](C)O
notes: also called compound 7
B4: N^ε1-[(4S)-4-carboxy-4-[[(4S)-4-carboxy-4-(19-carboxynonadecanoylamino)butanoyl]amino]butanoyl]-[Asp14,Arg17,Pro21,Pro26,Asp35]-h-amylin (peptide)
peptide: K([γGlu-γGlu-C20 diacid])CNTATCATQRLADFLRHSSPNFGAPLSSTNVGSDTY-NH2
modifications: disulfide 2-7; N-terminus assumed
SMILES: CC(C)C[C@H](NC(=O)[C@H](CCCNC(=N)N)NC(=O)[C@H](CCC(N)=O)NC(=O)[C@@H](NC(=O)[C@H](C)NC(=O)[C@@H]1CSSC[C@H](NC(=O)[C@@H](N)CCCCNC(=O)CC[C@H](NC(=O)CC[C@H](NC(=O)CCCCCCCCCCCCCCCCCCC(=O)O)C(=O)O)C(=O)O)C(=O)N[C@@H](CC(N)=O)C(=O)N[C@@H]([C@@H](C)O)C(=O)N[C@@H](C)C(=O)N[C@@H]([C@@H](C)O)C(=O)N1)[C@@H](C)O)C(=O)N[C@@H](C)C(=O)N[C@@H](CC(=O)O)C(=O)N[C@@H](Cc1ccccc1)C(=O)N[C@@H](CC(C)C)C(=O)N[C@@H](CCCNC(=N)N)C(=O)N[C@@H](Cc1c[nH]cn1)C(=O)N[C@@H](CO)C(=O)N[C@@H](CO)C(=O)N1CCC[C@H]1C(=O)N[C@@H](CC(N)=O)C(=O)N[C@@H](Cc1ccccc1)C(=O)NCC(=O)N[C@@H](C)C(=O)N1CCC[C@H]1C(=O)N[C@@H](CC(C)C)C(=O)N[C@@H](CO)C(=O)N[C@@H](CO)C(=O)N[C@H](C(=O)N[C@@H](CC(N)=O)C(=O)N[C@H](C(=O)NCC(=O)N[C@@H](CO)C(=O)N[C@@H](CC(=O)O)C(=O)N[C@H](C(=O)N[C@@H](Cc1ccc(O)cc1)C(N)=O)[C@@H](C)O)C(C)C)[C@@H](C)O
notes: also called compound 1

What was measured:
[1] = biological target: T1, human calcitonin receptor (human, UniProt P30988 25-474); experiment: cell-based or functional assay
T1 sequence (looked up): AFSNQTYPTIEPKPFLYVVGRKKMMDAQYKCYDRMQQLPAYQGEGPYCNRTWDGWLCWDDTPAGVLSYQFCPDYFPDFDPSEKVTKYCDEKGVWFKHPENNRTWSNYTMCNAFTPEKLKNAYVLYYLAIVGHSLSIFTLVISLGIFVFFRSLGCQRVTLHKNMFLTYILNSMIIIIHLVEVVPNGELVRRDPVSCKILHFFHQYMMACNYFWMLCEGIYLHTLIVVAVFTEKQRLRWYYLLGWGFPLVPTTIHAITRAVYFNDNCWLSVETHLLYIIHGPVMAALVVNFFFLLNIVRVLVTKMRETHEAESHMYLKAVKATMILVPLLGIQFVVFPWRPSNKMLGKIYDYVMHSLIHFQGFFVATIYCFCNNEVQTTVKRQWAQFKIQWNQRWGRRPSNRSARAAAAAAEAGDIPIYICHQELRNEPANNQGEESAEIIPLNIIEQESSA

[2] = biological target: T2, human amylin receptor (amylin 3(a) receptor: human calcitonin receptor with RAMP-3) (human, UniProt P30988 25-474; O60896 24-148); experiment: cell-based or functional assay
T2 sequence (looked up) 1: T1 sequence (looked up)
T2 sequence (looked up) 2: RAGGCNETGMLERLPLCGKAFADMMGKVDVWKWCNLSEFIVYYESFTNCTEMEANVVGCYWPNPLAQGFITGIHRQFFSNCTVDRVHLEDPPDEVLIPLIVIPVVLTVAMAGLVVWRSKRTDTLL

[3] = biological target: T2, human amylin receptor (amylin 3(a) …); experiment: SPA competition, displacement of 125I-rat amylin from membranes of BHK cells with the human amylin 3(a) receptor
Procedure: The binding assay was performed using scintillation proximity assay (SPA) beads (RPNQ0001) from PerkinElmer and cell membranes from the Amylin 3(a)/CRE-luc cells (as described in Assay (II)) were used. Membranes were prepared in the following way; the cells were rinsed with PBS and incubated with Versene for approximately 5 min before harvesting. The cells were flushed with PBS and the cell-suspension was centrifuged for 5 min at 1000 rpm. Cells were homogenized (ultrathurrax) in a buffer containing 20 mM Na-HEPES and 10 mM EDTA (pH 7.4) and centrifuged at 20.000 rpm for 15 min. The resulting pellet was resuspended, homogenized and centrifuged (20.000 rpm, 15 min) in a buffer containing 20 mM Na-HEPES and 0.1 mM EDTA (pH 7.4, buffer 2). The resulting pellet was resuspended in buffer 2 and protein concentration was measured (BCA protein Assay, Pierce). The homogenate was kept cold during the whole procedure. The membranes were kept at −80° C. until use. The assay was performed in a 384 well Optiplate (PerkinElmer) in a total volume of 40 ul. Membranes were mixed with SPA beads. Final concentration of membranes 35 ng/μL final and SPA beads was 0.05 mg/well. Test-compounds were dissolved in DMSO and further diluted in assay buffer (50 mM Hepes, pH 7.4, 1 mM CaCl2, 5 mM MgCl₂, 0.1% OA and 0.02% Tween20). […] The final mixture was incubated with shaking at 400 rpm for 120 min at 25° C. prior to centrifugation (1500 rpm, 10 min). Samples were analyzed on TopCounter™ (Packard). The IC₅₀ was calculated using (one site binding competition analysis) GraphPad Prism5 as a measure of receptor affinity.

Binder	Ratio hCT/hAmylin funct. [1]	hCTR funct. EC50 [1] [nM]	hAmylin-R funct. EC50 [2] [nM]	IC50 [3] [nM]
B1	1	0.16	0.162	0.374
B2	6.7	1.38	0.205	1.13
{C20 diacid-γGlu}-KCNTATCATQRLAEFLRHSSPNFGAILPSTNVGSETY-NH2 (disulfide 2-7, also called compound 33)	2.2	0.528	0.243	0.915
B3	4.5	1.16	0.255	0.674
B4	12	2.7	0.224	1.18
